Assay results reported in article doi:10.1101/709196 (bioRxiv, 2019).
One block for each molecule: values may come before it.

Experiments:
SS-EGFP-SUN2^261-731 = SS-EGFP-SUN2^261-731 (UniProt Q8BJS4); test: dual-color fluorescence fluctuation spectroscopy
[1] = target: the molecule itself; test: dual-color fluorescence fluctuation spectroscopy

normalized brightness br (mCherry labels per complex) at Nr:Ng above 4:1 (SS-EGFP-SUN2^261-731): 3
stoichiometry N (SS-EGFP-SUN2^261-731; scale: mCherry-SR-KASH2 per SS-EGFP-SUN2^261-731): < 1
Molecule: mCherry-SR-KASH2 (from UniProt Q6ZWQ0 1-6874) (domain or fragment)

B1: SS-EGFP-SUN2^261-731 (domain or fragment, UniProt Q8BJS4 261-731, looked up)
chain: SWWAAKESRKQPEVWESRDASQHFQAEQRVLSRVHSLERRLEALAADFSSNWQKEAIRLERLELRQGAAGHGGGSSLSHEDALSLLEGLVSRREATLKEDLRRDTVAHIQEELATLRAEHHQDSEDLFKKIVQASQESEARVQQLKTEWKSMTQEAFQESSVKELGRLEAQLASLRQELAALTLKQNSVADEVGLLPQKIQAARADVESQFPDWIRQFLLGDRGARSGLLQRDEMHAQLQELENKILTKMAEMQGKSAREAAASLGQILQKEGIVGVTEEQVHRIVKQALQRYSEDRIGMVDYALESGGASVISTRCSETYETKTALLSLFGIPLWYHSQSPRVILQPDVHPGNCWAFQGPQGFAVVRLSARIRPTAVTLEHVPKALSPNSTISSAPKDFAIFGFDEDLQQEGTLLGTFAYDQDGEPIQTFYFQASKMATYQVVELRILTNWGHPEYTCIYRFRVHGEPAH
stoichiometry N [1]: 3
